According to article PMC10894068:

Assays:
Assay in all cases: BLI
UIMC1(76-128) (human) = UIMC1(76-128) (human) (UniProt Q96RL1)
AN13A(479-594) (human) = target: AN13A(479-594) (human)
USP37(700-851) (human) = USP37(700-851) (human) (UniProt Q86T82)
Sequence of UniProt Q86T82 (Q86T82 700-851): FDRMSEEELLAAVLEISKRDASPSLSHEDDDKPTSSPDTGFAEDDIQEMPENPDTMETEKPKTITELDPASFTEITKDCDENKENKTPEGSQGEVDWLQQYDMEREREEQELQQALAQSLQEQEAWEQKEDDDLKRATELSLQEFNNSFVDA

Sequence of UniProt Q96RL1 (Q96RL1 76-128): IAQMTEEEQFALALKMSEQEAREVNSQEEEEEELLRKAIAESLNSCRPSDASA

Kd (UIMC1(76-128) (human)) | Kd (AN13A(479-594) (human)) | Kd (USP37(700-851) (human)) | Substance
2920 nM | 1280 nM | 8890 nM | K11-diUb (from UniProt P0CG47 1-76) (complex)
 | 7830 nM |  | K11/K48-triUb-(1,0) (triUb-NC(1,0)) (from UniProt P0CG47 1-75; P0CG47 1-76; P0CG47 1-76) (complex)
1040 nM | 430 nM | 3360 nM | K11/K63-triUb-(1,0) (triUb-NC(1,0)) (from UniProt P0CG47 1-75; P0CG47 1-76; P0CG47 1-76) (complex)
2170 nM | 250 nM | 4970 nM | K63-diUb containing a native linkage (from UniProt P0CG47 1-76) (complex)
2430 nM | 740 nM | 2710 nM | K63/K48-triUb-(1,0) (triUb-NC(1,0)) (from UniProt P0CG47 1-75; P0CG47 1-76; P0CG47 1-76) (complex)
